The results in this text go back to patent US20150111836A1, “CELLULAR APOBEC3 PROTEINS AND MODULATORS THEREOF FOR REGULATING DNA REPAIR PROCESSES AND TREATING PROLIFERATIVE DISEASES” (priority 2012, published 2015).

The target in test [1] is T1, purified recombinant A3G-His6 (human APOBEC3G with C-terminal Myc-His6 tag, expressed in 293T cells) (human), Q9HC16.
Test [2] concerns the target T1, purified recombinant A3G-His6 (human …). Kind of test: cell-based or functional assay.

T1 sequence (Q9HC16 whole entry): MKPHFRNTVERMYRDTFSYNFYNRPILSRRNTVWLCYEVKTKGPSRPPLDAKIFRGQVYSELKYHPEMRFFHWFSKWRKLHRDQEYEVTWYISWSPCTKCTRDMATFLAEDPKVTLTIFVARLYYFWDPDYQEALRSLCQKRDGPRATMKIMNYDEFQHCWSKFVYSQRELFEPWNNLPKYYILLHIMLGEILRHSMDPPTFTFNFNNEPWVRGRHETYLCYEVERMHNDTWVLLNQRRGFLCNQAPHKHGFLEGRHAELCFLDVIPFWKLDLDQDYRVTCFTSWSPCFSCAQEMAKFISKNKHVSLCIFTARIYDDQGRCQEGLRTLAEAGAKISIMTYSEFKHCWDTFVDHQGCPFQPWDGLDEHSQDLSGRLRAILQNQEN

In the case of VKHHMYISGKAKGWF (modifications not checked) [Vif25-39 peptide], in test [1], the K'I amounted to 250 nM. In addition, in test [2], the IC50 of inhibition of A3G deaminase activity is 0.6 µM, the IC50 of inhibition of deaminase activity of purified A3G (experimental repeat) came out at 1 µM and the inhibition of A3G deaminase activity came to 1 µM.

QLIHLYYFDCFSESA (modifications not checked) [Vif105-119 peptide]: in test [1], the K'I was found to be 92 nM and the Ki is 0.068 µM. Besides, in test [2], the IC50 of inhibition of A3G deaminase activity was determined as 0.1 µM and the inhibition of A3G deaminase activity is 1 µM.
